Test results: publication PMC5551578 (The Journal of Experimental Medicine, 2017)

These binders were tested against tetanus toxoid (Clostridium tetani, production strain …, UniProt P04958) (assay: not given).

| Binder | binding result |
| --- | --- |
| TT-Ab11 (antibody, V domains shown) VH: QVQLQESGPGLVKPSQTLSLTCNVSDGSISSDGYYWSWLRQHPGKGPEWIGYIHHSGHPYYNPSLKSRVTMSIDTSKNQFALKLSSVTAVDTAMYYCARVRGTGYYPGTLDLWGQGTLVTVSS VL: EIVLTQSPGTLSLSPGERATLSCRASQSVSSSYFAWYQQIPGQAPRLLIYGTSNRATGIPDRFSGSGSGKDFTLTISRLEPEDFAVYYCQQFGSSPLTFGGGTKVEIK | binds |
| TT-Ab1 (antibody, V domains shown) VH: QVQLQESGAEVKNLGASVKVSCKASGYIFTNYGITWVRQAPGQGLEWIGWTTIYNGNTNYARKLQGRVTMTTGTSTRTAYMELRSLKSDDTAMYYCARGLRHYHDGSPLEYWGQETTVTVSS VL: DIVMTQSPGTLSLSPGERVTLSCRASQSVGSSYLAWYQQKPGQTPRLLVFGASSRATGIPDRFSGSGSGTDFTLTISRLEPEDFAVYYCQLYGNSLITFGQGTRLEIK | binds |
| TT-Ab6 (antibody, V domains shown) VH: EVQLLESGGGLVRPGGSLRLSCAASGFSFNDHYMTWVRQAPGKGLEWVSYISDGRVTTNYAASVKGRFIISRDNTKKTVYLQMNSLTAEDTAVYYCARVGPWPVMKGAFDSWGQGTLVTVSS VL: DIQMTQSPGTLSLSPGERATISCRASQSVSSDYLVWYQQKPGQAPRLLIYGASRRATGIPDRFSGSGSGTDFTLTISRLEPEDFAVYYCQQYGSSPLFAFGPGTKVEIK | binds |
| TT-Ab13 (antibody, V domains shown) VH: EVQLVESGAEVKKPGESLRISCKGSGYSFTTYWIGWVRQMPGKGLEWIGIIYAGDSDTRYSPSFQGQVTMPVDKSITTAYLQWSSLKASDTAMYYCARQGDPSSYLTSGFEFWGQGTLVTVSS VL: DIQMTQSPSTLSASVGDGVTITCRASQSISRWLAWYQQKPGKAPKLLIYQASRLESGVPSRFSGSGSGTEFTLSISSLQPDDFATYYCHQYNSYSQTFGQGTKVEIK | binds |
| TT-Ab2 (antibody, V domains shown) VH: EVQLVESGAEVKKPGASVKLSCKASGYTVTSDYMHWVRQAPGQGLEWMGIINPSDGSTNYPRKFQGRVTMTRDTSTRTVYMEVSSLRSEDTAVYYCAGGGQRFTFDYWGQGATVTVSS VL: QSALTQPASVSGSPGQSITISCTGTSGNVGSHNLVSWYQQHPGEAPKLVISDINRRPSGVSNRFSGSKSGNTASLTISGLQAEDEADYFCCSYAGNSNVIFGGGTKLTVL | binds |
| TT-Ab5 (antibody, V domains shown) VH: EVQLVQSGAEVKKPGSSVKVSCTAPGVTFSTYPIDWVRQAPGQGLEWMGGIIPISGSPKYAQKFQGRVAITADGFTNTAYLELSSLRSEDTAVYYCATRESGYDGQFDYWGQGTLVTVSS VL: QSVLTQPPSASGTPGQRVTISCTGSTSNIGNNYVYWYQQVPGTAPTLLIYRSNQRPSGVPDRFSGSKSGTSASLAISGLRSEDEADYYCATWDDSLGVVFGGGTKLTVL | binds |
| TT-Ab8 (antibody, V domains shown) VH: EVQLVESGGGLVQPGGSLRLSCAASGFTFSYYDMNWVRQAPGKGLEWLSYISGSGGVIYYADSVKGRFTISRDNAKNSLFLQMNSLRAEDTAVYYCARDPSPGRLGFFDYWGQGTLVTVSS VL: EIVMTQSPAILSVSPGERATLSCRASQRVSSNLAWYQQKPGQAPRLLIYGASTRATGIPARFSGSGSGTEFTLTISSLQSEDCAIYYCQQYNNWPRTFGQGTKVEIK | binds |

Each binder was assayed against T1, H1N1 HA (A/California/04/2009) (Influenza A virus A/California/04/2009 …, UniProt C3W5S1, strain) (assay: ELISA).
T1 construct: source: bought: Sino Biological

| Binder | binding result |
| --- | --- |
| H5-Ab2 (antibody, V domains shown) VH: EVQLVQSGAEVKKPGSSVKVSCRSSGGPFRSNAISWVRQAPGQGLEWMGGIIAVFGTVEYAQKFQGRVTITADDSRSTVYMELRSLRSDDTAFYYCASAHGYHNYGSRGYFVSWGQGTLVTVSS VL: DIVMTQSPGTLSLSPGERATLSCRASQSVSSNYLAWYQQKLGQPPRLLIYGASSRATGIPDRFSGSGSGTDFTLTISRLEPEDYAVYYCQQYGSSPHTFGQGTKVEIK | binds |
